What all share (assay): cell-based or functional assay
Assay [1] deals with cz::ced-3(p15), CED-3 small subunit with the CZ leucine zipper at its N-terminus (opposite orientation) (C. elegans) (UniProt P42573).
Assay [2] has as its target ced-3(p15)::nz, CED-3 small subunit p15 with the NZ anti-parallel leucine zipper at its C-terminus (C. elegans) (UniProt P42573).
Assay [3] deals with Caspase-3(p12)::nz, human Caspase-3 small subunit p12 with the NZ anti-parallel leucine zipper at its C-terminus (human) (UniProt P42574).

Some results are limits rather than exact numbers.

Consider “ced-3(p17)::nz, CED-3 large subunit with the NZ leucine zipper at its C-terminus (opposite orientation) (from UniProt P42573 222-374)”, for which the % GFP positive touch cells (surviving cells), zippers in the opposite orientation in assay [1] was determined as 96%.

For the molecule “cz::ced-3(p17), CED-3 large subunit p17 with the CZ anti-parallel leucine zipper at its N-terminus (from UniProt P42573 222-374)”, in assay [2], the % GFP positive cells in L1 larvae, ced-3(n717) background was 5.9%; the % GFP positive cells in L1 larvae, ced-8(n1891) background is 21.9%; the % GFP positive cells in adults, ced-3(n717) background stood at 5.1%; the % GFP positive cells in adults, ced-8(n1891) background was found to be 4.5%. Moreover, in assay [2], the % GFP positive cells in adults, recCED-3(uIs37) is 5.4%; the death of touch sensory neurons monitored by the loss of GFP fluorescence, extrachromosomal arrays is above 60%; the death of touch sensory neurons, integrated lines was above 95%.

B1: cz::Caspase-3(p17), human Caspase-3 large subunit p17 with the CZ anti-parallel leucine zipper at its N-terminus (protein, part only; not given: Exact insert limits, part only)
chain, part: GGSGMENTENSVDSKSIKNLEPKIIHGSESMDSGISLDNSYKMDYPEMGLCIIINNKNFHKSTGMTSRSGTDVDAANLRETFRNLKYEVRNKNDLTREEIVELMRDVSKEDHSKRSSFVCVLLSHGEEGIIFGTNGPVDLKKITNFFRGDRCRSLTGKPKLFIIQACRGTELDCGIETD
In assay [3], B1 had a % GFP positive cells in adults, ced-3(n717) background of 1%; a % GFP positive cells in adults, recCaspase-3(uIs40) of 0.9%; a % of YFP positive HeLa cells with nuclear YFP (caspase-sensing EYFP vector) after doxycycline induction of 30 to 40%; an animals completely or partially paralyzed within three hours after induction of heat shock, hsp-16 and myo-3 promoters above 50%. In assay [3], this molecule displayed an animals completely paralyzed within 12 hours after heat shock, hsp-16 and myo-3 promoters of 100%; an apoptotic death of touch sensory neurons in C. elegans, extrachromosomal arrays of 80%; a death of touch receptor neurons in C. elegans, integrated DNA of 100%; a killing of embryonically derived ALM and PLM touch neurons after heat shock in the embryo, hsp-16 and mec-18 promoters above 90%. In addition, in assay [3], the paralysis of animals (death of body wall muscle cells) after heat shock, hsp-16 and myo-3 promoters was above 90%.

Source of the values: US20070026428A1.
